In PMC3179954, “A bacterial PriB with weak single-stranded DNA binding activity can stimulate the DNA unwinding activity of its cognate PriA helicase” (BMC Microbiology, 2011):

Key:
[1] = target: T1, N. gonorrhoeae PriA (N. gonorrhoeae) (UniProt Q5F6V8)
T1 sequence: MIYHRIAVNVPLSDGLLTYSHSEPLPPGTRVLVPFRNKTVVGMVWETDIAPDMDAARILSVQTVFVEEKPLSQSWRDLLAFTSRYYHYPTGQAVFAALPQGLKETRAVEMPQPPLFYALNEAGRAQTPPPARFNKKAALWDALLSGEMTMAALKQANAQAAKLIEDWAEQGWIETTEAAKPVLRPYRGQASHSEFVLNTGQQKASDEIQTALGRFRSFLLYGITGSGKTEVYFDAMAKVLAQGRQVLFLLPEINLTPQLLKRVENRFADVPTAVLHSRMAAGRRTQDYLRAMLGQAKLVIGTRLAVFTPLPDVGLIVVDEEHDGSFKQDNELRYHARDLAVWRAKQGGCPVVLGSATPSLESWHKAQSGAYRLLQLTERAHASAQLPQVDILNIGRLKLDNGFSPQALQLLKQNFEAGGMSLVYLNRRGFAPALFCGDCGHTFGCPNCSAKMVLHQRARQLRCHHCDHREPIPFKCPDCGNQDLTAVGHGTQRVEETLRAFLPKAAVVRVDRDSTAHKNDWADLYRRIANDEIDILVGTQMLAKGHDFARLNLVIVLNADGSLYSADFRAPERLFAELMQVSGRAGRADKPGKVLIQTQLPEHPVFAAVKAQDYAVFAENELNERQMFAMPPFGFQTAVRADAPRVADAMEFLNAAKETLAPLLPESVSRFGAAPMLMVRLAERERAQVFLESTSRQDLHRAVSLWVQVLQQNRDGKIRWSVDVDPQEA

[2] = target: T1, N. gonorrhoeae PriA (N. gonorrhoeae); remark: listed apart in the source
[3] = substrate: Nc1ncnc2c1ncn2[C@@H]1O[C@H](COP(=O)(O)OP(=O)(O)OP(=O)(O)O)[C@@H](O)[C@H]1O; assay: NADH-coupled spectrophotometric ATPase assay (pyruvate kinase / lactate dehydrogenase); format: biochemical, Neisseria gonorrhoeae; details: 100 nM Fork 3 DNA, no PriB, 10 nM PriA, 20 mM Hepes pH 8, 50 mM NaCl, 25°C
Excerpt: NADH-coupled spectrophotometric ATPase assay (pyruvate kinase / lactate dehydrogenase) on N. gonorrhoeae PriA

PriA helicase = target: T2, PriA helicase (Neisseria gonorrhoeae, UniProt Q5F6V8 1-729); assay: fluorescence polarization; 20 mM Tris-HCl pH 8, 10% glycerol, 50 mM NaCl, 1 mM 2-mercaptoethanol, 0.1 mg/ml BSA, 1 nM fluorescein-labeled DNA, 25 C; details: protein: recombinant
T2 sequence: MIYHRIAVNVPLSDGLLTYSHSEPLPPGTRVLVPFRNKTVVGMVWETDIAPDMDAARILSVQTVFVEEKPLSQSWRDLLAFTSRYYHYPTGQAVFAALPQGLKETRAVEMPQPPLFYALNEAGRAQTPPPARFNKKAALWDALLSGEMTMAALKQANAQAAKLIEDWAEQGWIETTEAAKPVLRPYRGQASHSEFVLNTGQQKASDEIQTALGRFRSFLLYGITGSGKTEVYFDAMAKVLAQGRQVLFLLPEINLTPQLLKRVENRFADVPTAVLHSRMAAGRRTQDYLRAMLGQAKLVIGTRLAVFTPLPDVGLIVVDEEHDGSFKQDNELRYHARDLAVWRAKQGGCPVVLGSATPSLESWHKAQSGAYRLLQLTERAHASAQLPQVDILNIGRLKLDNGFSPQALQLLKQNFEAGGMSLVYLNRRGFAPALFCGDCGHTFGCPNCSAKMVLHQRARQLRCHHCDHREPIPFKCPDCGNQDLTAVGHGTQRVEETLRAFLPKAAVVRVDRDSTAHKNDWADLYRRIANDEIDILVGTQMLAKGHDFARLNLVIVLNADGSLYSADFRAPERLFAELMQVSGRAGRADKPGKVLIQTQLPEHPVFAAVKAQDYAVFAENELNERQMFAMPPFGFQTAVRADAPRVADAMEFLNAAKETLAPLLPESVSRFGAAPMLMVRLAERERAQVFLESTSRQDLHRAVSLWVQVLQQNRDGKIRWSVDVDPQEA

PriB = target: T3, PriB (Neisseria gonorrhoeae, UniProt Q5F924 1-100); assay: as above; details: protein: recombinant, chain copies: 2
T3 sequence: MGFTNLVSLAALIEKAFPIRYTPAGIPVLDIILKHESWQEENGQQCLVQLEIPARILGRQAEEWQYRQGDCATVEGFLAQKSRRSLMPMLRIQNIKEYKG

[4] = label: 3' fluorescein, single strand
[5] = label: 3' fluorescein on S5 (nascent lagging strand), 25 bp duplex, 3' overhang 25 nt on strand 1

B1: N. gonorrhoeae PriB (natural protein)
chain: MGFTNLVSLAALIEKAFPIRYTPAGIPVLDIILKHESWQEENGQQCLVQLEIPARILGRQAEEWQYRQGDCATVEGFLAQKSRRSLMPMLRIQNIKEYKG
With B1 the percent unwinding of 1 nM Fork 3 by 2 nM PriA against PriB concentration (0 to 100 nM as monomers; 36% without PriB, near saturation at 20 nM) [1] was 86%, the fold stimulation of PriA helicase activity by PriB (unwinding with versus without PriB; 2 nM PriA, 100 nM PriB monomers, 1 nM 15 bp fork, Fork 1) [2] was 1.2 fold and the fold stimulation of PriA helicase activity by PriB (unwinding with versus without PriB; 2 nM PriA, 100 nM PriB monomers, 1 nM 25 bp fork, Fork 2) [2] was 1.7 fold. The fold stimulation of PriA helicase activity by PriB (unwinding with versus without PriB; 2 nM PriA, 100 nM PriB monomers, 1 nM 40 bp fork, Fork 3) [2] was 2.4 fold.

B2: N. gonorrhoeae PriA (Neisseria gonorrhoeae FA 1090) (protein)
chain: MIYHRIAVNVPLSDGLLTYSHSEPLPPGTRVLVPFRNKTVVGMVWETDIAPDMDAARILSVQTVFVEEKPLSQSWRDLLAFTSRYYHYPTGQAVFAALPQGLKETRAVEMPQPPLFYALNEAGRAQTPPPARFNKKAALWDALLSGEMTMAALKQANAQAAKLIEDWAEQGWIETTEAAKPVLRPYRGQASHSEFVLNTGQQKASDEIQTALGRFRSFLLYGITGSGKTEVYFDAMAKVLAQGRQVLFLLPEINLTPQLLKRVENRFADVPTAVLHSRMAAGRRTQDYLRAMLGQAKLVIGTRLAVFTPLPDVGLIVVDEEHDGSFKQDNELRYHARDLAVWRAKQGGCPVVLGSATPSLESWHKAQSGAYRLLQLTERAHASAQLPQVDILNIGRLKLDNGFSPQALQLLKQNFEAGGMSLVYLNRRGFAPALFCGDCGHTFGCPNCSAKMVLHQRARQLRCHHCDHREPIPFKCPDCGNQDLTAVGHGTQRVEETLRAFLPKAAVVRVDRDSTAHKNDWADLYRRIANDEIDILVGTQMLAKGHDFARLNLVIVLNADGSLYSADFRAPERLFAELMQVSGRAGRADKPGKVLIQTQLPEHPVFAAVKAQDYAVFAENELNERQMFAMPPFGFQTAVRADAPRVADAMEFLNAAKETLAPLLPESVSRFGAAPMLMVRLAERERAQVFLESTSRQDLHRAVSLWVQVLQQNRDGKIRWSVDVDPQEA
With B2 the Km [3] was 54 ± 19 µM and the kcat [3] was 9 ± 1 s⁻¹.

AAGCACAATTACCCACGC (ssDNA) [ssDNA (oML228)] showed a Kd (PriA helicase; [4]) of 0.307 ± 0.043 µM and a Kd (PriB; [4]) of 0.662 ± 0.037 µM.

B3: 3' Overhang (oML276/oML277) (mixed)
DNA 1: AACGTCATAGACGATTACATTGCTACATGGAGCTGTCTAGAGGATCCGAC
DNA 2: TAGCAATGTAATCGTCTATGACGTT
B3 was tested, and the Kd (PriA helicase; [5]) was 0.234 ± 0.062 µM and the Kd (PriB; [5]) was 0.628 ± 0.095 µM.
